Laboratory results: patent US20250136696A1 (HARBOUR BIOMED SHANGHAI, published 2025)

Tests used:
[1] = molecular target: T1, biotinylated human B7-H7 protein (Acro Biosystems, B77-H82F5) (human, UniProt Q9UM44 23-344, biotinylated); assay: BLI epitope competition on SA-captured biotinylated B7-H7; competitor (first antibody) PR003249
T1 construct: Bought soluble protein; also called biotin-B7H7 protein
T1 sequence (looked up): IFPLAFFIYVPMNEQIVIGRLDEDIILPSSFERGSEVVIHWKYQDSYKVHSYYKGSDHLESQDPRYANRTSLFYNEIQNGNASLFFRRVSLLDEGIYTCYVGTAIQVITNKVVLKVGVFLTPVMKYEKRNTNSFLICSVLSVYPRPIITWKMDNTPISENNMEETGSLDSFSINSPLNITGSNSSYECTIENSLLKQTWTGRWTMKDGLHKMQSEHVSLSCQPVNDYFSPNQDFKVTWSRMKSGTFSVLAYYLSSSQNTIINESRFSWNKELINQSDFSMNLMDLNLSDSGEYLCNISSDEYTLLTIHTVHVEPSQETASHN
Description: Epitope competition experiments were performed on the anti-B7-H7 antibodies using the ForteBio Octet Red96e platform with the same experimental buffer as described above. […] After being equilibrated in a buffer for 120 s, the sensors were immersed in various antibodies diluted to 100 nM for 240 s, and the final signal of the antibody binding to B7-H7 was recorded as the 100% signal for that antibody. Second step, epitope competition experiment: B7-H7 was captured using SA sensors at a capture height of 0.25 nm. The sensors were immersed in a first antibody (concentration: 100 nM) for 240 s, then the SA sensors were immersed in a mixture of the first antibody and a second antibody (final concentration of both antibodies: 100 nM) for 240 s, and the difference in signals before and after immersing the sensors in the mixture of the two antibodies was recorded as the signal for that antibody as the second antibody. The inhibition rate was calculated by the following equation, […]

[2] = molecular target: T2, human B7-H7 recombinant protein (human, UniProt Q9UM44 23-344); assay: BLI (Octet), antibody captured on AHC sensor, human B7-H7 in solution, 1:1 global fit
T2 construct: also called human B7-H7 protein
T2 sequence (looked up): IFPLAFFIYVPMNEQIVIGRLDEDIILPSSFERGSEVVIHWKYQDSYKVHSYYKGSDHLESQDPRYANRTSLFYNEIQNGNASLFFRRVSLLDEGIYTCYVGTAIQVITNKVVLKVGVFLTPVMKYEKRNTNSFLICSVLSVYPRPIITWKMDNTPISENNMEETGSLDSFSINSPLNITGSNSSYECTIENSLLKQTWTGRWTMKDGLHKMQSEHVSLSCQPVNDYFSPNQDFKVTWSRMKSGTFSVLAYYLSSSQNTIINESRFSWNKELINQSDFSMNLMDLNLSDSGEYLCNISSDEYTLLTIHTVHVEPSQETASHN
Description: The binding kinetics between antigen and antibody was analyzed using an Octet Red 96e (Fortebio) molecular interaction analyzer by biolayer interferometry (BLI) technology.
For determining the affinity of antibodies for antigens, the rotary speed of the sensor was set at 1000 rpm. AHC sensors (Fortebio, #18-5060) placed in one column were first equilibrated in a test buffer for 10 minutes, and then used to capture the anti-B7-H7 antibodies at a capture height of 0.7 nm; and after being equilibrated in the buffer for 120 s, the AHC sensors bound to human B7-H7 (concentrations: 50-3.125 nM and 0 nM) with 2-fold gradient dilution for 180 s and dissociated for 300 s. The AHC sensors were finally regenerated by immersing in a 10 mM glycine-hydrochloric acid solution with pH 1.5 to elute the protein bound to the sensors.
For data analysis using Octet Data Analysis software (Fortebio, version 11.0), 0 nM well was used as the reference well, reference subtraction was performed, “1:1 Global fitting” method was selected for data fitting, the kinetic parameters of the binding of the antigen to the antigen-binding protein were calculated, and the kₒₙ (1/Ms) value, kdis (1/s) value and KD (M) value were obtained.

[3] = molecular target: T3, cynomolgus monkey B7-H7 on the cell surface (cynomolgus monkey); assay: flow cytometry, HEK-293/cyno B7-H7 cells
T3 construct: whole, on cells; also called cyno B7-H7
Description: (§1) This example was intended to study the in vitro activity of H2L2 monoclonal antibodies against human B7-H7 in binding to human/cynomolgus monkey B7-H7. Since homologous molecules of B7-H7 were not present in mice, the detection was not performed. […] The cells were adjusted to a cell density of 1×10⁶ cells/mL, respectively. The cells were seeded in a 96-well V-bottom plate (Corning, #3894) at 100 μL/well, and the antibody to be tested at 2× final concentration with 3-fold concentration gradient dilution was then added at 100 μL/well. The cells were incubated at 4° C. for 2 hours in the dark. After the incubation, the cells were rinsed twice by adding pre-chilled PBS containing 2% BSA at 100 μl/well, and centrifuged at 500 g at 4° C. for 5 minutes, and the supernatant was discarded. […] The cells were washed twice by adding pre-chilled PBS containing 2% BSA at 100 μL/well, and centrifuged at 500 g at 4° C. for 5 minutes, and the supernatant was discarded. Finally, the cells were resuspended in pre-chilled PBS containing 2% BSA at 200 μL/well, and the fluorescence signal values were read using an ACEA Novocyte3000 flow cytometer.

[4] = molecular target: T1, biotinylated human B7-H7 protein (Acro …); assay: flow cytometry, blocking of biotinylated human B7-H7 binding to CHO-K1/KIR3DL3 cells
Excerpt: (§2) This example was intended to study the in vitro blocking activity of human anti-B7-H7 antibodies against the binding of human B7-H7 to its receptor KIR3DL3. A CHO-K1 cell (CHO-K1/KIR3DL3, Harbour BioMed US, Inc.) overexpressing human KIR3DL3 was used in experiments at the cellular level where human B7-H7/human KIR3DL3 binding was blocked. Briefly, the CHO-K1/KIR3DL3 cells were digested and resuspended in PBS containing 2% BSA. The cells were adjusted to a cell density of 1×10⁶ cells/mL. […] The cells were incubated at 4° C. for 1 hour in the dark. […] The cells were rinsed twice by adding pre-chilled PBS containing 2% BSA at 100 μL/well, and were centrifuged at 500 g at 4° C. for 5 minutes, and the supernatant was discarded. A fluorescent secondary antibody (PE Streptavidin, BD, Cat #: 554061, 1:200) was added at 100 μL/well, and the cells were incubated at 4° C. for 30 minutes in the dark. The cells were washed twice by adding pre-chilled PBS at 200 µL/well, and centrifuged at 500 g at 4° C. for 5 minutes, and the supernatant was discarded. Finally, the cells were resuspended in pre-chilled PBS at 200 μL/well, and the fluorescence signal values were read using an ACEA Novocyte3000 flow cytometer. IC50 was calculated.

[5] = molecular target: T4, human B7-H7 on the cell surface (human, UniProt Q9UM44 23-414); assay: flow cytometry, HEK-293/hu B7-H7 cells
T4 construct: whole, on cells; also called hB7-H7; hu B7-H7
T4 sequence (looked up): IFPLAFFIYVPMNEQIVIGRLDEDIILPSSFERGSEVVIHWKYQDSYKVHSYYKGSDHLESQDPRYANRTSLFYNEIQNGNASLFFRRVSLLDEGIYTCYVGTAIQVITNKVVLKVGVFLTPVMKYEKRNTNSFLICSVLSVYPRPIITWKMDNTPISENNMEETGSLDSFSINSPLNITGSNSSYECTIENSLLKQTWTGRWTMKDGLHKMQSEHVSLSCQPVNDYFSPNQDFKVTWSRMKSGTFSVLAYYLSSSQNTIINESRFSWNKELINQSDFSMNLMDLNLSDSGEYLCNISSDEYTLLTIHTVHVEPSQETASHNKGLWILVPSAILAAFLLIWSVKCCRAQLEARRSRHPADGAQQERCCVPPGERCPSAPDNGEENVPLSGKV
Description: as §1

[6] = molecular target: T1, biotinylated human B7-H7 protein (Acro …); assay: flow cytometry, blocking of biotinylated human B7-H7 binding to HEK-293/CD28H cells
Description: as §2, with “CD28H. […]” for “KIR3DL3. A CHO-K1 cell (CHO-K1/KIR3DL3, Harbour BioMed US, Inc.) overexpressing human KIR3DL3 was used in experiments at the cellular level where human B7-H7/human KIR3DL3 binding was blocked. Briefly, the CHO-K1/KIR3DL3 cells were digested and resuspended in PBS containing 2% BSA.”, “μL/well,” for “µL/well,”

[7] = molecular target: T4, human B7-H7 on the cell surface; assay: flow cytometry, HCC827 cells
Description: as §1

| Competitive inhibition rate (%) [1] [%] | Kd [2] [nM] | koff [2] [s⁻¹] | kon [2] [M⁻¹ s⁻¹] | EC50 [3] [nM] | Maximum MFI [3] [MFI] | IC50 [4] [nM] | Maximum inhibition rate (%) [4] [%] | EC50 [5] [nM] | Maximum MFI [5] [MFI] | IC50 [6] [nM] | Maximum inhibition rate (%) [6] [%] | Maximum MFI [7] [MFI] | EC50 [7] [nM] | Binder |
| --- | --- | --- | --- | --- | --- | --- | --- | --- | --- | --- | --- | --- | --- | --- |
| 107 | 1.06 | 0.000132 | 125000 | 0.429 | 414000 | 7.59 | 97.1 | 1.04 | 837000 | 1.43 | 101 | 69400 | – | PR003252 (antibody, human IgG1, kappa, V domains shown, Human IgG1; also called 53C12D4) VH: QVQLVESGGGVVQPGRSLRLSCAASGFTFSNYAMHWVRQVPGKGLEWVALIWYDGSEKYYADSVKGRFTISRDDSKNTLFLQMSSLRAEDTAVYSCVREYSSGWGYFDYWGQGTQVTVSS VL: DIQMTQSPSTLSASVGDRVTITCRASQSISSWLAWYQQKPGKAPKLLIYKASSLKSGVPSRFSGSGSGTEFTLTISSLQPDDFATYYCLQYNSYYTFGQGTKLEIKR |
| 111 | 4.6 | 0.000336 | 73000 | 0.326 | 275000 | 7.5 | 105 | 0.941 | 723000 | 1.49 | 100 | 60100 | 0.0445 | PR003261 (antibody, human IgG1, kappa, V domains shown, Human IgG1; also called 74A11E4) VH: QVQLVESGGGVVQPGRSLRLSCAASGFTFSNYGMHWVRQAPGKGLEWVAVIWYDGTNKNYADSVKGRFTISRDNSKNTLDLQMNSLRAEDTAVYFCARDRNTAMDYFVYWGQGTLVTVSS VL: not shown |
| 103 | 2.91 | 0.000271 | 93200 | 0.399 | 405000 | 8.49 | 97.2 | 0.995 | 823000 | 1.41 | 101 | 68800 | 0.00294 | PR003250 (antibody, human IgG1, kappa, V domains shown, Human IgG1; also called 34G2E6) VH: QVQLVESGGGVVQPGRSLRLSCAASGFTFSDYGIHWVRQAPGKGLEWVAVIWYDGSDKYYADSVRGRFTISRDNSKNTLSLQMNSLRAEDTAVYYCARDRSSGAMGYFAYWGQGTLVTVSS VL: not shown |
| 108 | 1.6 | 0.00014 | 88000 | 8.51 | 698000 | 12.9 | 99.3 | 1.81 | 981000 | 1.87 | 101 | 68600 | 0.0399 | PR003248 (antibody, human IgG1, kappa, V domains shown, Human IgG1, fully human, from Harbour H2L2 mice; also called 13D8D2) VH: QVQLVESGGGVVQPGRSLRLSCAASGFTFSDYGLHWVRQAPGRGLEWVAVIWYDGSEEYYADSVKGRFTISRDNSKKSLYLQMNSLRAEDTAVYFCARDRNSGALGYFPHWGQGTLVTVSS VL: not shown |
| 107 | 9.93 | 0.000648 | 65200 | 0.211 | 170000 | 8.55 | 102 | 0.663 | 531000 | 1.57 | 101 | 49300 | 0.0477 | PR003266 (antibody, human IgG1, kappa, V domains shown, Human IgG1; also called 7D3D2) VH: QVQLVESGGGVVQPGRSLRLSCAASGFTFSDYGMHWVRQAPGKGLEWVAIIWYDGSNKYYADSVKGRFTISRDNSKNTLYLQMNSLRAEDTAVYYCARDRSSGALGYFQHWGQGTLVTVSS VL: not shown |
